Measured values as given in PMC3072266.

Target: 3AB wild type (poliovirus type 1 (Mahoney), UniProt P03300 1457-1565)
Test: EMSA

Sequence of 3AB wild type (P03300 1457-1565): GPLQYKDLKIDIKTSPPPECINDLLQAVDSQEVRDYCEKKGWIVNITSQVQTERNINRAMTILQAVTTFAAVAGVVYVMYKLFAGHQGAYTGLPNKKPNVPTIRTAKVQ

Does GAGUGCACCAUAUGCCAUUCAGGCUACGCAACUGUUGGGA (ssRNA) [40-mer RNA] bind?
Result: binds
